Reference: patent US20220308056

Target: recombinant SARS-Cov-2 nucleocapsid protein (NP2), P0DTC9

B1: recombinant MASP-2 (rMASP-2) of Example 23 (protein)
chain: TPLGPKWPEPVFGRLASPGFPGEYANDQERRWTLTAPPGYRLRLYFTHFDLELSHLCEYDFVKLSSGAKVLATLCGQESTDTERAPGKDTFYSLGSSLDITFRSDYSNEKPFTGFEAFYAAEDIDECQVAPGEAPTCDHHCHNHLGGFYCSCRAGYVLHRNKRTCSALCSGQVFTQRSGELSSPEYPRPYPKLSSCTYSISLEEGFSVILDFVESFDVETHPETLCPYDFLKIQTDREEHGPFCGKTLPHRIETKSNTVTITFVTDESGDHTGWKIHYTSTAQPCPYPMAPPNGHVSPVQAKYILKDSFSIFCETGYELLQGHLPLKSFTAVCQKDGSWDRPMPACSIVDCGPPDDLPSGRVEYITGPGVTTYKAVIQYSCEETFYTMKVNDGKYVCEADGFWTSSKGEKSLPVCEPVCGLSARTTGGRIYGGQKAKPGDFPWQVLILGGTTAAGALLYDNWVLTAAHAVYEQKHDASALDIRMGTLKRLSPHYTQAWSEAVFIHEGYTHDAGFDNDIALIKLNNKVVINSNITPICLPRKEAESFMRTDDIGTASGWGLTQRGFLARNLMYVDIPIVDHQKCTAAYEKPPYPRGSVTANMLCAGLESGGKDSCRGDSGGALVFLDSETERWFVGGIVSWGSMNCGEAGQYGVYTKVINYIPWIENIISDF
Q: How did the “C4 cleavage on NP2-coated wells (SDS-PAGE Western blot)” value turn out when B1 was run?
A: Its value is “a new band corresponding to C4′α”.
